Laboratory results as given in patent publication US20260167721A1 (ABLEXIS, published 2026).

B1: CD3 × CD33-BspAb115 (bispecific antibody)
scFv-Fc: NFMLTQPHSVSESPGKTVTISCTRTSGSIASNYVQWYQQRPGSSPTTVIYEDNQRPSGVPDRFSGSIDSSSNSASLTISGLKTEDEAAYYCQSYDRSNRVFGCGTKLTVLGGGGSGGGGSGGGGSGGGGSQVQLQESGPGLVKPSETLSLTCTVSGGSISSYYWSWIRQPAGKCLEWIGRIYTSGSTKYNPSLKSRVTMSVDTSKNQFSLKLISVTAADTAVYFCARERIRDLYFDYWGQGTLVTVSSGGGGSDKTHTCPPCPAPEFEGGPSVFLFPPKPKDTLMISRTPEVTCVVVDVSHEDPEVKFNWYVDGVEVHNAKTKPREEQYNSTYRVVSVLTVLHQDWLNGKEYKCKVSNKALPASIEKTISKAKGQPREPQVYTLPPCREEMTKNQVSLWCLVKGFYPSDIAVEWESNGQPENNYKTTPPVLDSDGSFFLYSKLTVDKSRWQQGNVFSCSVMHEALHNHYTQKSLSLSPGK
heavy: EVQLVQSGAEVKKPGSSVKVSCKASGYTITDSNIHWVRQAPGQSLEWIGYIYPYNGGTDYNQKFKNRATLTVDNPTNTAYMELSSLRSEDTAFYYCVNGNPWLAYWGQGTLVTVSSASTKGPSVFPLAPSSKSTSGGTAALGCLVKDYFPEPVTVSWNSGALTSGVHTFPAVLQSSGLYSLSSVVTVPSSSLGTQTYICNVNHKPSNTKVDKRVEPKSCDKTHTCPPCPAPEFEGGPSVFLFPPKPKDTLMISRTPEVTCVVVDVSHEDPEVKFNWYVDGVEVHNAKTKPREEQYNSTYRVVSVLTVLHQDWLNGKEYKCKVSNKALPASIEKTISKAKGQPREPQVCTLPPSREEMTKNQVSLSCAVKGFYPSDIAVEWESNGQPENNYKTTPPVLDSDGSFFLVSKLTVDKSRWQQGNVFSCSVMHEALHNRFTQKSLSLSPGK
light: DIQLTQSPSTLSASVGDRVTITCRASESLDNYGIRFLTWFQQKPGKAPKLLMYAASNQGSGVPSRFSGSGSGTEFTLTISSLQPDDFATYYCQQTKEVPWSFGQGTKVEVKRTVAAPSVFIFPPSDEQLKSGTASVVCLLNNFYPREAKVQWKVDNALQSGNSQESVTEQDSKDSTYSLSSTLTLSKADYEKHKVYACEVTHQGLSSPVTKSFNRGEC
notes: KiH heterodimer
B2: CD3 × CD33-BspAb117 (bispecific antibody)
scFv-Fc: NFMLTQPHSVSESPGKTVTISCTRSSGSIASNYVQWYQQRPGSSPTSVIYEDNQRPSGVPDRFSGSIDSSSNSASLTISGLKTEDEADYYCQSYDRSNRVFGCGTKLTVLGGGGSGGGGSGGGGSGGGGSEVQLVESGGGLVKPGGSLRLSCAASGLTFSTYSMNWVRQAPGKCLEWVSSISSSGSYVYYADSVKGRFTMSRDNAKNSLYLQMNSLRAEDTAVYYCARERRELLFDYWGQGTLVTVSSGGGGSDKTHTCPPCPAPEFEGGPSVFLFPPKPKDTLMISRTPEVTCVVVDVSHEDPEVKFNWYVDGVEVHNAKTKPREEQYNSTYRVVSVLTVLHQDWLNGKEYKCKVSNKALPASIEKTISKAKGQPREPQVYTLPPCREEMTKNQVSLWCLVKGFYPSDIAVEWESNGQPENNYKTTPPVLDSDGSFFLYSKLTVDKSRWQQGNVFSCSVMHEALHNHYTQKSLSLSPGK
heavy: B1 heavy
light: B1 light
notes: KiH heterodimer
B3: CD3 × CD33-BspAb120 (bispecific antibody)
chain 1: NFMLTQPHSVSESPGKTVAISCTRSSGSIASNYVQWYQQRPGSSPTAVIYEDNQRPSGVPDRFSGSIDSSSNSAFLTISGLKTEDEADYYCQSYDSSNRVFGCGTKLTVLGGGGSGGGGSGGGGSGGGGSEVQLVESGGGLVKPGGSLRLSCAASGFTFSSYSMNWVRQAPGKCLEWVSSISRSSGYIFYADSVKGRFTISRDNAKNSLYLQMNSLRAEDTAVYYCVRERVGAGFDYWGQGTLVTVSSDKTHTCPPCPAPEFEGGPSVFLFPPKPKDTLMISRTPEVTCVVVDVSHEDPEVKFNWYVDGVEVHNAKTKPREEQYNSTYRVVSVLTVLHQDWLNGKEYKCKVSNKALPASIEKTISKAKGQPREPQVYTLPPCREEMTKNQVSLWCLVKGFYPSDIAVEWESNGQPENNYKTTPPVLDSDGSFFLYSKLTVDKSRWQQGNVFSCSVMHEALHNHYTQKSLSLSPGK
chain 2: B1 heavy
chain 3: B1 light
B4: CD3 × CD33-BspAb121 (bispecific antibody)
chain 1: QTVVTQEPSLTVSPGGTVTLTCASSTGAVTSGYYPNWFQQKPGQAPRALIYSTSNKHSWTPARFSGSLLGGKAALTLSGVQPEDEAEYYCLLYYGGAYVFGCGTKVTVLGGGGSGGGGSGGGGSGGGGSEVQLVESGGGLVKPGGSLRLSCAASGFTFSSYSMNWVRQAPGKCLEWVSSISRSGTYIYYADSVKGRFTISRDNAKNSLYLQMNSLRAEDTAVYYCARERWELLYFDYWGQGTLVTVSSDKTHTCPPCPAPEFEGGPSVFLFPPKPKDTLMISRTPEVTCVVVDVSHEDPEVKFNWYVDGVEVHNAKTKPREEQYNSTYRVVSVLTVLHQDWLNGKEYKCKVSNKALPASIEKTISKAKGQPREPQVYTLPPCREEMTKNQVSLWCLVKGFYPSDIAVEWESNGQPENNYKTTPPVLDSDGSFFLYSKLTVDKSRWQQGNVFSCSVMHEALHNHYTQKSLSLSPGK
chain 2: B1 heavy
chain 3: B1 light
B5: CD3 × CD33-BspAb118 (bispecific antibody)
scFv-Fc: FMLTQPHSVSESPGKTVTISCTRSSGSIASNYVQWYQQRPGSSPTTVIYEDNQRPSGVPDRFSGSIDSSSNSASLTISGLQTEDEADYYCQSYDSSNRVFGCGTKLTVLGGGGSGGGGSGGGGSGGGGSEVQLVESGGGLVKPGGSLRLSCVASGFTFSRYSMNWVRQAPGKCLEWVSSISSSSRYTYYADSLKGRFIMSRDNAKNSLFLQMNSLRAEDTAVYYCARNLYNALDYWGQGTLVTVSSGGGGSDKTHTCPPCPAPEFEGGPSVFLFPPKPKDTLMISRTPEVTCVVVDVSHEDPEVKFNWYVDGVEVHNAKTKPREEQYNSTYRVVSVLTVLHQDWLNGKEYKCKVSNKALPASIEKTISKAKGQPREPQVYTLPPCREEMTKNQVSLWCLVKGFYPSDIAVEWESNGQPENNYKTTPPVLDSDGSFFLYSKLTVDKSRWQQGNVFSCSVMHEALHNHYTQKSLSLSPGK
heavy: B1 heavy
light: B1 light
notes: KiH heterodimer
B6: CD3 × CD33-BspAb116 (bispecific antibody)
scFv-Fc: NFMLTQPHSVSESPGKTVTISCTRSSGSIASNYVQWYQQRPGSSPTTVIYEDNQRPSGVPDRFSGSIDSSSNSASLTISGLKTEDEAYYYCQSFDSSNRVFGCGTKLTVLGGGGSGGGGSGGGGSGGGGSQVQLQESGPGLVKPSQTLSLTCTVSGGSISSGGYYWSWIRQHPGKCLEWIGYIYYSGSTYYNPSLKSRVTISVDTSKDQFSLKLSSVTAADTAVYYCARERKTSLPFDIWGQGTMVTVSSGGGGSDKTHTCPPCPAPEFEGGPSVFLFPPKPKDTLMISRTPEVTCVVVDVSHEDPEVKFNWYVDGVEVHNAKTKPREEQYNSTYRVVSVLTVLHQDWLNGKEYKCKVSNKALPASIEKTISKAKGQPREPQVYTLPPCREEMTKNQVSLWCLVKGFYPSDIAVEWESNGQPENNYKTTPPVLDSDGSFFLYSKLTVDKSRWQQGNVFSCSVMHEALHNHYTQKSLSLSPGK
heavy: B1 heavy
light: B1 light
notes: KiH heterodimer
B7: CD3 × CD33-BspAb122 (bispecific antibody)
chain 1: QTVVTQEPSFSVSPGGTVTLTCGLSSGSVSTSYYPSWYQQTPGQAPRTLIYSTNTRSSGVPDRFSGSILGNKAALTITGAQADDESDYYCVLYMGSGIWVFGCGTKLTVLGGGGSGGGGSGGGGSGGGGSEVQLVESGGGLVKPGGSLRLSCAASGFTVSNYSMNWVRQAPGKCLEWVSSISRSSSYIYYADSVKGRFTISRDNAKNSLFLQMNSLRAEDTAVYYCARERWELLYFDYWGQGTLVTVSSDKTHTCPPCPAPEFEGGPSVFLFPPKPKDTLMISRTPEVTCVVVDVSHEDPEVKFNWYVDGVEVHNAKTKPREEQYNSTYRVVSVLTVLHQDWLNGKEYKCKVSNKALPASIEKTISKAKGQPREPQVYTLPPCREEMTKNQVSLWCLVKGFYPSDIAVEWESNGQPENNYKTTPPVLDSDGSFFLYSKLTVDKSRWQQGNVFSCSVMHEALHNHYTQKSLSLSPGK
chain 2: B1 heavy
chain 3: B1 light

What was measured:
[1] = target: T1, human CD3 (TCR/CD3 complex on the cell surface) (human, UniProt P07766 23-207; P04234 22-171; P09693 23-182); experiment: flow cytometry, Pan-T cells, 10 ug/mL
T1 construct: whole, on cells; Native CD3 on human Pan-T cells or Jurkat wild-type cells; also called CD3 on Pan-T cells; CD3 on Jurkat WT cells

[2] = target: T1, human CD3 (TCR/CD3 complex on the cell …); experiment: flow cytometry, Jurkat WT gMFI over Jurkat KO gMFI, 10 ug/mL
[3] = target: T1, human CD3 (TCR/CD3 complex on the cell …); experiment: flow cytometry, Jurkat WT gMFI over Jurkat KO gMFI, 1 ug/mL
[4] = target: T1, human CD3 (TCR/CD3 complex on the cell …); experiment: flow cytometry, Jurkat WT cells, 1 ug/mL
[5] = target: T1, human CD3 (TCR/CD3 complex on the cell …); experiment: flow cytometry, Pan-T cells, 1 ug/mL
[6] = target: T1, human CD3 (TCR/CD3 complex on the cell …); experiment: flow cytometry, Jurkat WT cells, 10 ug/mL

T1 sequence (P07766 23-207, chain 1 of 3): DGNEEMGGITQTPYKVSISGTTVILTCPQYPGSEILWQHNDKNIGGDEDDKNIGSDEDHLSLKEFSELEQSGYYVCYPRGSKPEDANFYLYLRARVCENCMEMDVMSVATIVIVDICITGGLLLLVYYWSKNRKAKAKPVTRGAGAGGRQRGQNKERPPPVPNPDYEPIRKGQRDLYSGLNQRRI
T1 sequence (P04234 22-171, chain 2 of 3): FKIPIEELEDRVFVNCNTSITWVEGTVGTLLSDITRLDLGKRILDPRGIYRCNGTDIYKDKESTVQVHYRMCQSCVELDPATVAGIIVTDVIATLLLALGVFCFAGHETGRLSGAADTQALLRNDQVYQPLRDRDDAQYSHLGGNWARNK
T1 sequence (P09693 23-182, chain 3 of 3): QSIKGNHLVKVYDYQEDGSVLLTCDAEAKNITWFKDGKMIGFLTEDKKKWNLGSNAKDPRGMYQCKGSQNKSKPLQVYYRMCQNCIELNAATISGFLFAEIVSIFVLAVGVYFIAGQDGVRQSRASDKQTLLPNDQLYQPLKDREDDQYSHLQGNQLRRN

Binder	% Positive [1] [%]	gMFI [1] [gMFI]	Jurkat WT/KO (Fold) [2] [fold]	Jurkat WT/KO (Fold) [3] [fold]	gMFI [4] [gMFI]	% Positive [5] [%]	gMFI [5] [gMFI]	gMFI [6] [gMFI]
B1	95.5	34200	5.7	3.6	7380	63.4	8660	12600
B2	99.7	195000	10.6	8.7	29700	99.6	70300	38600
B3	99.3	87700	6.1	3.7	8730	95.2	27600	14600
B4	1.5	1920	1	0.8	1920	1.5	1920	2040
B5	99.8	370000	13.8	12.3	56300	99.3	331000	65000
B6	98.2	30000	4.1	1.6	3320	31.6	5260	9600
B7	1	2020	1	0.8	1910	1.9	2080	1980
